Among the data in the Human Domainome abundance scans (Beltran et al. 2025) are abundance fitness values, retold here.

± gives the uncertainty stated by the source.

To fix the notation:
B1: Double-stranded RNA-specific adenosine deaminase, residues 296 to 358; numbered along this chain, P55265 (parent)
chain: MAEIKEKICDYLFNVSDSSALNLAKNIGLTKARDINAVLIDMERQGDVYRQGTTPPIWHLTDK

In this data set the parent is B1. Nature of the data set: abundance fitness (aPCA) (normalised: wild type 0, dead -1); higher = more abundant; growth selection in yeast, the domain comes from the species named. The note with it: Homo sapiens.
On to MAEIKEKICDYLFNVSDSSALNLAKNIGLTKARDINAELIDMERQGDVYRQGTTPPIWHLTDK [V38E], for which the abundance fitness was -0.13 ± 0.06.
Next, MAEIKEKICDYLFNVSDSSALNLAKNIGLTKARDINARLIDMERQGDVYRQGTTPPIWHLTDK [V38R]: -0.528 ± 0.049.
As to MAEIKEKICDYLFNVSDSSALNLAKNIGLTKARDINAHLIDMERQGDVYRQGTTPPIWHLTDK [V38H], the abundance fitness was -0.31 ± 0.11.
With MAEIKEKICDYLFNVSDSSALNLAKNIGLTKARDINAWLIDMERQGDVYRQGTTPPIWHLTDK [V38W], the abundance fitness is -0.739 ± 0.081.
MAEIKEKICDYLFNVSDSSALNLAKNIGLTKARDINAYLIDMERQGDVYRQGTTPPIWHLTDK [V38Y]: the abundance fitness was -1.27 ± 0.39.
For the variant MAEIKEKICDYLFNVSDSSALNLAKNIGLTKARDINAMLIDMERQGDVYRQGTTPPIWHLTDK [V38M], the abundance fitness is -0.488 ± 0.075.
For MAEIKEKICDYLFNVSDSSALNLAKNIGLTKARDINATLIDMERQGDVYRQGTTPPIWHLTDK [V38T] the value was -0.11 ± 0.057.
Take MAEIKEKICDYLFNVSDSSALNLAKNIGLTKARDINADLIDMERQGDVYRQGTTPPIWHLTDK [V38D]: the abundance fitness is -0.254 ± 0.17.
Turning to MAEIKEKICDYLFNVSDSSALNLAKNIGLTKARDINAALIDMERQGDVYRQGTTPPIWHLTDK [V38A], the abundance fitness came to 0.343 ± 0.061.
Next, MAEIKEKICDYLFNVSDSSALNLAKNIGLTKARDINAVIIDMERQGDVYRQGTTPPIWHLTDK [L39I]: -0.756 ± 0.094; MAEIKEKICDYLFNVSDSSALNLAKNIGLTKARDINAVRIDMERQGDVYRQGTTPPIWHLTDK [L39R]: -0.365 ± 0.055.
Take MAEIKEKICDYLFNVSDSSALNLAKNIGLTKARDINAVDIDMERQGDVYRQGTTPPIWHLTDK [L39D]: the abundance fitness was -0.125 ± 0.086.
As to MAEIKEKICDYLFNVSDSSALNLAKNIGLTKARDINAVNIDMERQGDVYRQGTTPPIWHLTDK [L39N], the abundance fitness is -0.393 ± 0.089.
Consider MAEIKEKICDYLFNVSDSSALNLAKNIGLTKARDINAVTIDMERQGDVYRQGTTPPIWHLTDK [L39T], for which the abundance fitness was -0.461 ± 0.064.
For MAEIKEKICDYLFNVSDSSALNLAKNIGLTKARDINAVYIDMERQGDVYRQGTTPPIWHLTDK [L39Y], the abundance fitness was -0.678 ± 0.087.
For the variant MAEIKEKICDYLFNVSDSSALNLAKNIGLTKARDINAVSIDMERQGDVYRQGTTPPIWHLTDK [L39S], the abundance fitness is -0.265 ± 0.052.
Consider MAEIKEKICDYLFNVSDSSALNLAKNIGLTKARDINAVPIDMERQGDVYRQGTTPPIWHLTDK [L39P], for which the abundance fitness is -0.385 ± 0.078.
For the variant MAEIKEKICDYLFNVSDSSALNLAKNIGLTKARDINAVAIDMERQGDVYRQGTTPPIWHLTDK [L39A], the abundance fitness was -0.148 ± 0.059.
For MAEIKEKICDYLFNVSDSSALNLAKNIGLTKARDINAVWIDMERQGDVYRQGTTPPIWHLTDK [L39W], the abundance fitness is -0.966 ± 0.13.
Turning to MAEIKEKICDYLFNVSDSSALNLAKNIGLTKARDINAVQIDMERQGDVYRQGTTPPIWHLTDK [L39Q], the abundance fitness was -0.244 ± 0.066.
Consider MAEIKEKICDYLFNVSDSSALNLAKNIGLTKARDINAVVIDMERQGDVYRQGTTPPIWHLTDK [L39V], for which the abundance fitness is -0.589 ± 0.08.
Next, MAEIKEKICDYLFNVSDSSALNLAKNIGLTKARDINAVKIDMERQGDVYRQGTTPPIWHLTDK [L39K]: -0.096 ± 0.059.
With MAEIKEKICDYLFNVSDSSALNLAKNIGLTKARDINAVGIDMERQGDVYRQGTTPPIWHLTDK [L39G], the abundance fitness is -0.176 ± 0.05.
MAEIKEKICDYLFNVSDSSALNLAKNIGLTKARDINAVMIDMERQGDVYRQGTTPPIWHLTDK [L39M]: the abundance fitness is -0.294 ± 0.059.
In the case of MAEIKEKICDYLFNVSDSSALNLAKNIGLTKARDINAVHIDMERQGDVYRQGTTPPIWHLTDK [L39H], the abundance fitness was -0.44 ± 0.13.
Turning to MAEIKEKICDYLFNVSDSSALNLAKNIGLTKARDINAVCIDMERQGDVYRQGTTPPIWHLTDK [L39C], the abundance fitness was -0.528 ± 0.1.
Turning to MAEIKEKICDYLFNVSDSSALNLAKNIGLTKARDINAVFIDMERQGDVYRQGTTPPIWHLTDK [L39F], the abundance fitness was -0.812 ± 0.09.
For MAEIKEKICDYLFNVSDSSALNLAKNIGLTKARDINAVLINMERQGDVYRQGTTPPIWHLTDK [D41N] the value was -0.514 ± 0.12; for MAEIKEKICDYLFNVSDSSALNLAKNIGLTKARDINAVLIMMERQGDVYRQGTTPPIWHLTDK [D41M], -0.539 ± 0.15; for MAEIKEKICDYLFNVSDSSALNLAKNIGLTKARDINAVLIVMERQGDVYRQGTTPPIWHLTDK [D41V], -1.14 ± 0.2.
On to MAEIKEKICDYLFNVSDSSALNLAKNIGLTKARDINAVLIAMERQGDVYRQGTTPPIWHLTDK [D41A], for which the abundance fitness was -0.315 ± 0.062.
For the variant MAEIKEKICDYLFNVSDSSALNLAKNIGLTKARDINAVLILMERQGDVYRQGTTPPIWHLTDK [D41L], the abundance fitness was -0.99 ± 0.11.
Turning to MAEIKEKICDYLFNVSDSSALNLAKNIGLTKARDINAVLICMERQGDVYRQGTTPPIWHLTDK [D41C], the abundance fitness was -0.822 ± 0.15.
Next, MAEIKEKICDYLFNVSDSSALNLAKNIGLTKARDINAVLISMERQGDVYRQGTTPPIWHLTDK [D41S]: -0.501 ± 0.093; MAEIKEKICDYLFNVSDSSALNLAKNIGLTKARDINAVLIEMERQGDVYRQGTTPPIWHLTDK [D41E]: 0.223 ± 0.13; MAEIKEKICDYLFNVSDSSALNLAKNIGLTKARDINAVLIWMERQGDVYRQGTTPPIWHLTDK [D41W]: -1.12 ± 0.19.
Turning to MAEIKEKICDYLFNVSDSSALNLAKNIGLTKARDINAVLITMERQGDVYRQGTTPPIWHLTDK [D41T], the abundance fitness is -0.445 ± 0.071.
Turning to MAEIKEKICDYLFNVSDSSALNLAKNIGLTKARDINAVLIYMERQGDVYRQGTTPPIWHLTDK [D41Y], the abundance fitness was -1.06 ± 0.24.
Take MAEIKEKICDYLFNVSDSSALNLAKNIGLTKARDINAVLIGMERQGDVYRQGTTPPIWHLTDK [D41G]: the abundance fitness is -0.348 ± 0.068.
For the variant MAEIKEKICDYLFNVSDSSALNLAKNIGLTKARDINAVLIPMERQGDVYRQGTTPPIWHLTDK [D41P], the abundance fitness was -0.421 ± 0.076.
As to MAEIKEKICDYLFNVSDSSALNLAKNIGLTKARDINAVLIFMERQGDVYRQGTTPPIWHLTDK [D41F], the abundance fitness is -1.34 ± 0.31.
For MAEIKEKICDYLFNVSDSSALNLAKNIGLTKARDINAVLIHMERQGDVYRQGTTPPIWHLTDK [D41H], the abundance fitness is -0.754 ± 0.15.
Consider MAEIKEKICDYLFNVSDSSALNLAKNIGLTKARDINAVLIRMERQGDVYRQGTTPPIWHLTDK [D41R], for which the abundance fitness is -0.73 ± 0.065.
